The values that follow come from US20260242478A1 (published 2026).

For assay [1], the target named is T1, Anti-CD28 Fab (SEQ ID NOs: 696, 697).
T1 construct: In the phage ELISA the Fab was biotinylated and captured on neutravidin coated plates
The assay can be described thus: phage binding ELISA; clonal phage on plate-captured biotinylated anti-CD28 Fab, anti-M13 HRP detection. Background: ELISA stands for enzyme-linked immunosorbent assay.
T1 sequence (VH, as listed by the source, chain 1 of 2): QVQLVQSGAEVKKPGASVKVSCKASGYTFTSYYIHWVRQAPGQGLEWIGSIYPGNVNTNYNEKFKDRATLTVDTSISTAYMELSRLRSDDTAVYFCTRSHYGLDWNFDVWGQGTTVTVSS
T1 sequence (VL, as listed by the source, chain 2 of 2): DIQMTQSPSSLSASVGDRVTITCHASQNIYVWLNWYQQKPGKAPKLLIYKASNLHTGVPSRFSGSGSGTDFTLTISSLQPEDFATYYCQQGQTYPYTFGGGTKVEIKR
Procedure: (§1) After panning, phage infected bacteria were plated out and colonies picked into 96 well blocks. Clonal phage was then amplified and separated from bacterial cells via centrifugation.
(§2) Clonal phage were harvested as crude supematants and screened via standard ELISAs. […] Prior to the addition of clonal phage, wells were incubated with blocking buffer and CD28 antigen or blocking buffer alone. Without washing or aspirating, clonal phage supematants were then added to the wells and incubated for a short time. Wells were then washed followed by detection of bound phage using a horse radish conjugated anti-M13 antibody. Clonal phage of interest were then sent for sequence analysis.

The target is the same in assay [2]. The assay can be described thus: phage binding ELISA on plate-captured anti-CD28 Fab pre-incubated with CD28 antigen as competitor.
Target sequence in this assay (VH, as listed by the source, chain 1 of 2): as the sequence (VH, as listed by the source, chain 1 of 2) above
Target sequence in this assay (VL, as listed by the source, chain 2 of 2): as the sequence (VL, as listed by the source, chain 2 of 2) above
Procedure: as §1, §2
Assay [3] has as its target T2, Anti-CD28 Fab (SEQ ID NOs: 696, 697).
T2 construct: Biotinylated and captured on neutravidin coated plates in the phage ELISA
Put plainly: phage binding ELISA on captured anti-CD28 Fab; competitor: CD28 antigen at saturating concentration.
T2 sequence (VH, as listed by the source, chain 1 of 2): as the sequence (VH, as listed by the source, chain 1 of 2) above
T2 sequence (VL, as listed by the source, chain 2 of 2): as the sequence (VL, as listed by the source, chain 2 of 2) above
Procedure: as §1, §2

Assay [4] shares this target. Put plainly: phage binding ELISA; biotinylated anti-CD28 Fab on neutravidin plate, bound phage detected with anti-M13 HRP.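 Also: crude supernatants of clonal phage screened, wells pretreated with blocking buffer with or without CD28 antigen before brief phage incubation, washed, then bound phage detected.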
Target sequence in this assay (VH, as listed by the source, chain 1 of 2): as the sequence (VH, as listed by the source, chain 1 of 2) above
Target sequence in this assay (VL, as listed by the source, chain 2 of 2): as the sequence (VL, as listed by the source, chain 2 of 2) above
Procedure: as §1, §2
The target of assay [5] is T3, Anti-CD28 Fab (SEQ ID NOs: 696, 697).
T3 construct: Biotinylated and captured on neutravidin coated plates in the phage ELISA
Put plainly: phage ELISA; Fab-coated wells first incubated with CD28 antigen (competitor), then clonal phage, anti-M13 HRP.
T3 sequence (VH, as listed by the source, chain 1 of 2): as the sequence (VH, as listed by the source, chain 1 of 2) above
T3 sequence (VL, as listed by the source, chain 2 of 2): as the sequence (VL, as listed by the source, chain 2 of 2) above
Procedure: as §1, §2

The target is the same in assay [6]. Put plainly: phage ELISA; biotinylated anti-CD28 Fab on neutravidin plate, clonal phage supernatant, anti-M13 HRP.
Target sequence in this assay (VH, as listed by the source, chain 1 of 2): as the sequence (VH, as listed by the source, chain 1 of 2) above
Target sequence in this assay (VL, as listed by the source, chain 2 of 2): as the sequence (VL, as listed by the source, chain 2 of 2) above
The target of assay [7] is T4, Anti-CD28 Fab (SEQ ID NOs: 696, 697).
T4 construct: In the phage ELISA the Fab was biotinylated and captured on neutravidin coated plates
The assay can be described thus: phage ELISA; captured anti-CD28 Fab pre-incubated with CD28 antigen as competitor, anti-M13 HRP.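 Also: crude clonal phage supernatants added without washing after CD28 pre-incubation, bound phage detected with HRP anti-M13 antibody, reference wells got blocking buffer lacking CD28.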
Procedure: as §1, §2

Assay [8] has the same target. Put plainly: phage ELISA; biotinylated anti-CD28 Fab on neutravidin plate, clonal phage supernatant, anti-M13 HRP.

Where no end group is shown, it is not given here.

B1: Phage-1226 (peptide)
peptide: YCQGHFPQYMAKCL
modifications: cysteine pairing not given here; also: displayed on phage by fusion to pIII, linker and pIII sequence not given here
notes: Tested as clonal phage supernatant
Take B1: in assay [1], the “Anti-CD28 Fab signal (phage binding ELISA)” value worked out at 0.97. The “Anti-CD28 Fab signal in the presence of CD28 (phage binding ELISA)” value in assay [2] came out at 0.07.

B2: Phage-1214 (peptide)
peptide: YCEGHSSVYLWKCL
notes: tested as crude clonal phage supernatant
On to B2, for which the “Anti-CD28 Fab signal in the presence of CD28” value in assay [3] was determined as 0.05. In assay [4], the “Anti-CD28 Fab signal” value came out at 1.

B3: Phage-1220 (peptide)
peptide: YCDGHVGAYMWKCL
notes: as for B2
On to B3, for which the “Anti-CD28 Fab signal in the presence of CD28” value in assay [3] was found to be 0.06. Also, the “Anti-CD28 Fab signal” value in assay [4] was 0.99.

B4: Phage-1232 (peptide)
peptide: YCEGHDIRYMMKCL
modifications: cysteine pairing not given here; also: displayed on phage by fusion to pIII, linker and pIII sequence not given here
notes: as for B1
In the case of B4, the “Anti-CD28 Fab signal (phage binding ELISA)” value in assay [1] amounted to 0.95. The “Anti-CD28 Fab signal in the presence of CD28 (phage binding ELISA)” value in assay [2] came out at 0.08.

B5: Phage-1225 (peptide)
peptide: YCAGHAAEYMWKCL
modifications: cysteine pairing not given here; also: displayed on phage by fusion to pIII, linker and pIII sequence not given here
notes: as for B1
As for B5, the “Anti-CD28 Fab signal (phage binding ELISA)” value in assay [1] worked out at 0.97. The “Anti-CD28 Fab signal in the presence of CD28 (phage binding ELISA)” value in assay [2] is 0.06.

B6: Phage-1211 (peptide)
peptide: YCEGHIEQYMRKCL
notes: as for B2
Regarding B6, the “Anti-CD28 Fab signal in the presence of CD28” value in assay [3] was found to be 0.06. In assay [4], the “Anti-CD28 Fab signal” value turned out to be 1.01.

B7: Phage-1236 (peptide)
peptide: YCAGHAEIYMQKCL
Turning to B7, in assay [5], the “Anti-CD28 Fab signal in the presence of CD28 (phage binding ELISA)” value is 0.05. Besides, the “Anti-CD28 Fab signal (phage binding ELISA)” value in assay [6] was found to be 0.93.

B8: Phage-1213 (peptide)
peptide: YCEGHLREYMLKCL
notes: as for B2
In the case of B8, the “Anti-CD28 Fab signal in the presence of CD28” value in assay [3] was 0.07. Also, in assay [4], the “Anti-CD28 Fab signal” value worked out at 1.01.

B9: Phage-1222 (peptide)
peptide: YCFGHFPEYMAKCL
modifications: cysteine pairing not given here; also: displayed on phage by fusion to pIII, linker and pIII sequence not given here
notes: as for B1
Consider B9, for which the “Anti-CD28 Fab signal (phage binding ELISA)” value in assay [1] amounted to 0.98. Also, the “Anti-CD28 Fab signal in the presence of CD28 (phage binding ELISA)” value in assay [2] came out at 0.07.

B10: Phage-1227 (peptide)
peptide: YCEGHVPEYLVKCL
modifications: cysteine pairing not given here; also: displayed on phage by fusion to pIII, linker and pIII sequence not given here
notes: as for B1
Consider B10, for which, in assay [1], the “Anti-CD28 Fab signal (phage binding ELISA)” value was 0.96. Also, the “Anti-CD28 Fab signal in the presence of CD28 (phage binding ELISA)” value in assay [2] amounted to 0.06.

B11: Phage-1231 (peptide)
peptide: YCAGHTPEYLDKCL
modifications: cysteine pairing not given here; also: displayed on phage by fusion to pIII, linker and pIII sequence not given here
notes: as for B1
B11: in assay [1], the “Anti-CD28 Fab signal (phage binding ELISA)” value amounted to 0.95. Further, the “Anti-CD28 Fab signal in the presence of CD28 (phage binding ELISA)” value in assay [2] came to 0.06.

B12: Phage-1207 (peptide)
peptide: YCEGHSSAYMRKCL
modifications: cysteine pairing not given here; also: displayed on phage by fusion to pIII, linker and pIII sequence not given here
On to B12, for which, in assay [7], the “Anti-CD28 Fab signal in the presence of CD28 (phage binding ELISA)” value was 0.06. In addition, the “Anti-CD28 Fab signal (phage binding ELISA)” value in assay [8] worked out at 1.04.

B13: Phage-1218 (peptide)
peptide: YCEGHIEPYMQKCL
notes: as for B2
Regarding B13, the “Anti-CD28 Fab signal in the presence of CD28” value in assay [3] was found to be 0.06. Further, the “Anti-CD28 Fab signal” value in assay [4] was found to be 0.99.

B14: Phage-1229 (peptide)
peptide: YCDGHLPEYMLKCL
modifications: cysteine pairing not given here; also: displayed on phage by fusion to pIII, linker and pIII sequence not given here
notes: as for B1
Regarding B14, the “Anti-CD28 Fab signal (phage binding ELISA)” value in assay [1] was determined as 0.96. In addition, in assay [2], the “Anti-CD28 Fab signal in the presence of CD28 (phage binding ELISA)” value stood at 0.09.

B15: Phage-1210 (peptide)
peptide: YCAGHSQVYMWKCL
notes: as for B2
Consider B15, for which the “Anti-CD28 Fab signal in the presence of CD28” value in assay [3] was 0.06. The “Anti-CD28 Fab signal” value in assay [4] stood at 1.02.

B16: Phage-1230 (peptide)
peptide: YCAGHLDVYMSKCL
modifications: cysteine pairing not given here; also: displayed on phage by fusion to pIII, linker and pIII sequence not given here
notes: as for B1
With B16, the “Anti-CD28 Fab signal (phage binding ELISA)” value in assay [1] was 0.96. For the same molecule, the “Anti-CD28 Fab signal in the presence of CD28 (phage binding ELISA)” value in assay [2] was 0.09.

B17: Phage-1208 (peptide)
peptide: YCDGHLAEYIQKCL
notes: as for B2
Turning to B17, in assay [3], the “Anti-CD28 Fab signal in the presence of CD28” value was 0.08. In addition, the “Anti-CD28 Fab signal” value in assay [4] is 1.04.

B18: Phage-1212 (peptide)
peptide: YCFGHAPEYLLKCL
notes: as for B2
B18: the “Anti-CD28 Fab signal in the presence of CD28” value in assay [3] was determined as 0.08. The “Anti-CD28 Fab signal” value in assay [4] stood at 1.01.

B19: Phage-1216 (peptide)
peptide: YCDGHLEVYMSKCL
notes: as for B2
Consider B19, for which, in assay [3], the “Anti-CD28 Fab signal in the presence of CD28” value came to 0.09. Moreover, the “Anti-CD28 Fab signal” value in assay [4] turned out to be 1.

B20: Phage-1223 (peptide)
peptide: YCDGHTGMYISKCL
modifications: cysteine pairing not given here; also: displayed on phage by fusion to pIII, linker and pIII sequence not given here
notes: as for B1
As to B20, the “Anti-CD28 Fab signal (phage binding ELISA)” value in assay [1] was found to be 0.98. Also, the “Anti-CD28 Fab signal in the presence of CD28 (phage binding ELISA)” value in assay [2] was determined as 0.06.

B21: Phage-1217 (peptide)
peptide: YCEGHRPEYMANCL
notes: as for B2
Take B21: in assay [3], the “Anti-CD28 Fab signal in the presence of CD28” value is 0.06. Moreover, the “Anti-CD28 Fab signal” value in assay [4] came to 1.

B22: Phage-1228 (peptide)
peptide: YCDGHSKEYMSKCL
modifications: cysteine pairing not given here; also: displayed on phage by fusion to pIII, linker and pIII sequence not given here
notes: as for B1
Take B22: the “Anti-CD28 Fab signal (phage binding ELISA)” value in assay [1] is 0.96. Also, the “Anti-CD28 Fab signal in the presence of CD28 (phage binding ELISA)” value in assay [2] stood at 0.07.

B23: Phage-1234 (peptide)
peptide: YCSGHVPEYMEKCL
As for B23, the “Anti-CD28 Fab signal in the presence of CD28 (phage binding ELISA)” value in assay [5] came to 0.06. Besides, the “Anti-CD28 Fab signal (phage binding ELISA)” value in assay [6] is 0.94.

B24: Phage-1219 (peptide)
peptide: YCDGHKPEYMDKCL
notes: as for B2
In the case of B24, the “Anti-CD28 Fab signal in the presence of CD28” value in assay [3] turned out to be 0.07. The “Anti-CD28 Fab signal” value in assay [4] was 0.99.

B25: Phage-1209 (peptide)
peptide: YCAGHSSEYLQKCL
notes: as for B2
Take B25: in assay [3], the “Anti-CD28 Fab signal in the presence of CD28” value was 0.09. Besides, the “Anti-CD28 Fab signal” value in assay [4] was found to be 1.03.

B26: Phage-1215 (peptide)
peptide: YCEGHSWIYIAKCL
notes: as for B2
For B26, the “Anti-CD28 Fab signal in the presence of CD28” value in assay [3] came out at 0.07. The “Anti-CD28 Fab signal” value in assay [4] is 1.

B27: Phage-1233 (peptide)
peptide: YCDGHEERYMAKCL
modifications: cysteine pairing not given here; also: displayed on phage by fusion to pIII, linker and pIII sequence not given here
notes: as for B1
Take B27: the “Anti-CD28 Fab signal (phage binding ELISA)” value in assay [1] was 0.94. Moreover, the “Anti-CD28 Fab signal in the presence of CD28 (phage binding ELISA)” value in assay [2] stood at 0.06.

B28: Phage-1221 (peptide)
peptide: YCEGHSAIYIAKCM
modifications: cysteine pairing not given here; also: displayed on phage by fusion to pIII, linker and pIII sequence not given here
notes: as for B1
For B28, the “Anti-CD28 Fab signal (phage binding ELISA)” value in assay [1] worked out at 0.98. Further, the “Anti-CD28 Fab signal in the presence of CD28 (phage binding ELISA)” value in assay [2] was determined as 0.11.

B29: Phage-1224 (peptide)
peptide: YCSGHSWAYIGKCL
modifications: cysteine pairing not given here; also: displayed on phage by fusion to pIII, linker and pIII sequence not given here
notes: as for B1
With B29, the “Anti-CD28 Fab signal (phage binding ELISA)” value in assay [1] was 0.98. Also, the “Anti-CD28 Fab signal in the presence of CD28 (phage binding ELISA)” value in assay [2] is 0.07.

B30: Phage-1235 (peptide)
peptide: YCDGHIPQYVEKCL
On to B30, for which the “Anti-CD28 Fab signal in the presence of CD28 (phage binding ELISA)” value in assay [5] stood at 0.08. Besides, in assay [6], the “Anti-CD28 Fab signal (phage binding ELISA)” value is 0.94.
